Experiment: label from the status in PepcDB records

Sequence | protein production
MKMYEVKEFSSGKRKLEDYKSIIGEEEVSKIQEKAEKLKGRSFVHVNSTSFGGGVAEILHSLVPLLRSIGIEARWFVIEGPTEFFNVTKTFHNALQGNESLKLTEEMKELYLNVNRENSKFIDLSSFDYVLVHDPQPAALIEFYEKKSPWLWRCHIDLSSPNREFWEFLRRFVEKYDRYIFHLPEYVQPELDRNKAVIMPPSIDPLSEKNVELKQTEILRILERFDVDPEKPIITQVSRFDPWKGIFDVIEIYRKVKEKIPGVQLLLVGVMAHDDPEGWIYFEKTLRKIGEDYDVKVLTNLIGVHAREVNAFQRASDVILQMSIREGFGLTVTEAMWKGKPVIGRAVGGIKFQIVDGETGFLVRDANEAVEKVLYLLKHPEVSKEMGAKAKERVRKNFIITKHMERYLDILNSLGGLEHHHHHH | not failed
MINSFKSVFLTIRYFIQNDLATQASALTYRTILSIVPMLAVLIGIAKGFGIQQVVHDWLKEYLPGHQQELEQALGYVENYLAQVQGGIFVGVGLIVLLYTVFSLIATVEDTFTDIWQTNKRRTWKRRVIDYMGAFFLLPILITASSGLTLMMTTIKGTYFSEYILFGPMLELILNLIPYVIIVLLFTGMYIVLPTVNVRFWPAFISGVLAGIVFQIFQALYISGILWISKYNAIYGSFAAVPLLLLWIQLSWTIVLFGAQLSFSIQNVRKFAFERDTTNVSRRYIDFITIVVASLIVKRFISDERRPHTADSLAEESKAPIRLVSEAIHRLLSIEAITEVNYAHDPKAEFFSPAIDPEKITVGFILDRIDRYGSEHFKVDNKVRFAPEWQAIEDSRQSLHIPPADTLLKNL | failed
MWRYRSPEMPLTESFLDLMLIPIIGFGLAVILLIGFFLLYQEVGIFKNLKFLVIRKNNPFFILALFCLITGLALGLVGYWGILEPKLGAADLQALRRNLIILSLLLFGVTFRQYLFDLIKPVTTMAIWRKIGTFNYKNRIAILTYVLLGLIALAWMAPMASTKIIFSINDHTSHIGYIVQGRMALEEGQFPLRVAPLENFGFRYPGFQFYSQLPYFFGAIIYKFLTPTNPYTAYKILLWSALWLGGIFIYRVGFFFTRSQIAAILGGVTYMSAPYFLNNVHARGAFTEAIAQGILAIVLFYAIQTFYYPHYRHLILGALAWCALGLTHIITFVYTTIFIALLGAIFLVKNKPNHWQKGITYISLSYIWAWLLALYFLAPVALESGSLAIRRQIQAINPFNTTDITPIANLLAPNSLPHQPTELGIAPTYGFHPAVGWILLAGFGTVIYFVFAGKSLPRRLWRSQPWLIPLLSVFILALFLTWSPVNIWNLLPRQLWVTQFTFRFLTHVMWSGALLTTLAIILIFRERLRSRHLILGILIIVIASRPWLPIPRGTVTVEELLQDPLFRYSGALDYLYRLPNKAVPVNTKAQSAVEKIYGKAELQLLHPDWIPGYLSWDVFINGPLPIDVDIPYPAWPETEKPTLVLQGRVPMDKIKSQANLIVFVDQQPLTSIPLTQEELKVKVPFTDVKFAGNAFELKFIVEGETTDGNPLYIRMNHLYFDDFSAANTLLPVHATKEMCNQKGVVTNCPVEMPAEAGTVQLPILYYPAMQQVVVDNQPVKGFFTNYRDFNLLSLNLSPGKHQIQVKFTGLIWANFISLLAWLTLIITAIALKFYPRKPEQTIFK | failed
MKHVHGNGLVLGAAAFVFLAAQPVSAQTTQITEVKLNPGNGGLSVVLKTSAGSRPQVFTTKRGKALVADIINTQLRLPQGNNFRQDKPAAGIASVEVVQLDANSIRVIVTGDSDAPTSQPVIRQQDGITLSLTPSTGTTASAPVTPRPPVSTTPPASTPAQTGVVPNVLVPNPQVTIDGKPAQPAGPGQPLSQAPPFLPRAVAPPVGDIAISATDASPSTIDLGTQERVPRLVLRDAPVREVLSLLARAANLNLAYISDGVGGTPAAGGQGISQTISLDIENEPVQDVFNYVLRLSGLEANRSNRTIFVGPKLPNSTRDVVMRNLRLNQVNVGVALNFLVGLGAETAVSRERQVTNVNAVPVGTGVAPITQTQTTTETRVETQRINFQDSNPLLRGLQALGDERTNSLTLIGPPKLVEMAMNQLTQLDIRRRQVVVNVKIIDVNLSNTQDNNASLSFGIGNNYFSSDGGAASLNIGGLNPPSAGNVRNSLNPTVTTNPYSSGNTFLDLTQSVGPVPDTGVDTRNITINNPGGGSITETQGQDLNFVQRRAGISGDPFETGITAVTQGTPNIIRRTTTTDPTTGAVTETTTVTEGTRGSITAALPSLFQYPKRLLANLQAQVTNGNAKILTDPTLIVQEGQTANVKLTQEVVGNITSETTRGDGASTQTVTAEKTDVGLTLAVKIDRIDDNGFVSLSVAPVVKAPQSSAVINVSGNSQTIFLVSERSLNSGMIRLRDGQTLILSGIIQDQDRTSVSKIPILGDIPLIGSLFRKTNRTNERREVIVLLTPQVMDDSQNSSYGYNYSPSPEVRQMLERRGLNTPRR | failed
MESPHAADPEGIDPQVVELATTIFALARAGDTASLDAYIRAGVPANLTNDQGDTLVMLAAYYGHADTVECLCRHGADVNRLNDRGQSPLAGAVFKDEDAVVKTLLAHGADPTLGQPSAIDTARMFGKEHYLELFDNA | failed
MGFIMEFAENLVLRLMENPEERDRKAREHIYEMHERCKKIKEMWALPIRPYGFWTFERHNAQLRWDPQISQVAGRRDPYDDLLEDNYTPPSSSSSSSD | failed
MLDLFGYKRRKTSVAQIGDTPLGGDFPIRIQSMANVSTMDTQASVDQAARIIDAGADYVRFTAQGVREAVNLQHIHAGLCRLGYHIPLVADIHFSPKAAEEALLHVEKVRINPGNFVEMKSGGNLTEEEAFDLGHKAVRERFGSFVEDAKRLGRAIRIGVNHGSLSERMLTRYGDTAEGMVQSCMEYLDVCHEHEFDDVVISMKASNTLVMTAAVRLLVERMDAADMHYPLHIGVTEAGDGEDGRIKSAVGIGSLLADGIGDTIRVSLSEDPEHEIPVARKLLAYIEKRNGHPSVAVPQPDRYDRDKLRRQETYAVGDFIGSKHIPIVISDRRQGDDHFDTELLPDIVLGADGRYYREDMLLENIVFRSIRQDDLTDDCLQTIEAISDTVIILESVGINPVAEWRAMLHRLELAGCRCPVILHRRYDCTDLEDLQLQASADMGAILLEGRGNGLMITADKLPSVAVNHLAFGILQATR | failed
MPLCLKINKKHGEQTRRILIENNLLNKDYKITSEGNYLYLPIKDVDEDILKSILNIEFELVDKELEEKKIIKKPSFREIISKKYRKEIDEGLISLSYDVVGDLVILQISDEVDEKIRKEIGELAYKLIPCKGVFRRKSEVKGEFRVRELEHLAGENRTLTIHKENGYRLWVDIAKVYFSPRLGGERARIMKKVSLNDVVVDMFAGVGPFSIACKNAKKIYAIDINPHAIELLKKNIKLNKLEHKIIPILSDVREVDVKGNRVIMNLPKFAHKFIDKALDIVEEGGVIHYYTIGKDFDKAIKLFEKKCDCEVLEKRIVKSYAPREYILALDFKINKK | not failed
MFQPLLDAFIESASIEKMVSKSPPPPLKIAVANWWGDEEIKEFKKSVLYFILSQRYAITLHQNPNESSDLVFSNPLGAARKILSYQNTKRVFYTGENESPNFNLFDYAIGFDELDFNDRYLRMPLYYAHLHYEAELVNDTTAPYKLKDNSLYALKKPSHHFKENHPNLCAVVNDESDLLKRGFASFVASNANAPMRNAFYDALNSIEPVTGGGSVRNTLGYKVGNKSEFLSQYKFNLCFENSQGYGYVTEKILDAYFSHTIPIYWGSPSVAKDFNPKSFVNVHDFNNFDEAIDYIKYLHTHPNAYLDMLYENPLNTLDGKAYFYQDLSFKKILDFFKTILENDTIYHNNPFIFYRDLHEPLISIDDLRVNYDDLRVNYDDLRVNYDDLRVNYDDLRVNYDDLRVNYDDLRVNYDDLRVNYDDLRVNYDDLRVNYDRLLQNASPLLELSQNTTFKIYRKAYQKSLPLLRTIRRWVKK | failed
MRLLPRETGDGDRPRVARSARPRAGSAVEGALSAAQRPLRHGAYPRRATSPVARVRMVFLALVATLFALPALAEPKFPPLSGRVVDEAQVLSPDVERDLSDKLAALETRTGHQLVVATVSSLQGYPIEDYGYRLGRTWGIGDKDKDDGAILLVAPNDRQVRIEVGYGLEPVLTDALSSVIIQSAILPKFRDGDLSGGIVAGADAMIEQLGLPPEEAKARVADAARPERHEARGSPIVGFLILLFIIFVFSSLFRGRRGGLGSALPWIILSALNNSGRGGGGWGGGGGGGFSGGGGSFGGGGSSGRW | failed
MASKEAHVSLARGEQSVKRIKEFDPGKDSFSVLLLGIDAREKNGETVDQARSDANVLVTFNRKEKTAKMLSIPRDAYVNIPGHGYDKFTHAHAYGGVDLTVKTVEEMLDIPVDYVVESNFTAFEDVVNELNGVKVTVKSDKVIQQIKKDTKGKVVLQKGTHTLDGEEALAYVRTRKADSDLLRGQRQMEVLSAIIDKSKSLSSIPAYDDIVDTMGQNLKMNLSLKDAIGLFPFITSLKSVESIQLTGYDYEPAGVYYFKLNQQKLQEVKKELQNDLGVLEHHHHHH | not failed
